The results in this text go back to the nanobody polyreactivity screen of Harvey et al. (2022).

A short description of this data set: yeast display, Sf9 membrane polyspecificity reagent, FACS + sequencing; frameworks hold sequencing errors. Summed up: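 Polyreactivity labels are assigned by the sorting gate from which each nanobody was recovered. The gates were low and high (top ~1%), set on anti-HA fluorescence for expression and streptavidin fluorescence for reagent binding. Before sorting, galactose-induced (36–48 hours) yeast display cells were stained for 1 hour at 4 °C with 10% biotinylated, detergent-solubilized Sf9 membrane reagent.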
For the sequence “QVQIVESGGGLVQAGGSLRLSCAASGRIFTVYGKGWYRQAPGKERELVAAISWSGGGTYYADSVKGRFTISRDNAQNTVYLQKNSLKPDDTAVYYCNADRQYTWSLVFFSSEYDYWGQGTQVTVSS”, the “polyreactivity (PSR sort gate)” value is “low polyreactivity”. With “QVQLVESGGGLVQPGGSLRLSCAASGYTFWQYAMGWYRQAPGKERELVAAISGSGGRTYYADSVKGRFTISRDNAKNTVYLQMNSLKPEDTAVYYCAAPYLRYYLGWYDYWGQGTQVTVSS”, the “polyreactivity (PSR sort gate)” value is on record as “high polyreactivity”.

Consider “QVQLVESGGGLVQAGGILRLSCAASGRTLSKNAMGWYRQAPGKERELVATISSVGRTNYADSVKGRFTISRDNEKITVYLQMISLKPEDTAVYYCSARRFRGSYYWGQGTQVTVSS”, for which the “polyreactivity (PSR sort gate)” value is listed as “high polyreactivity”. In the case of “QLQLVESGGGLVQAGGSLRLSCASSGSIFLFNAMGWYRQAAGQERELVAAITSSGTRTYYADSVKGRFTISRDNAKNTVYLQMNSLKPEDTAVYYCNAVGPVDSYHRYYYWGQGTQGTVSS”, the “polyreactivity (PSR sort gate)” value is recorded as “low polyreactivity”.

Regarding “QVQLVESGGGLVQAGGSLRLSCAASGRIFGFYAMGWYRQAPGKERELVADITSGGSTNYADSVKGRFTISRDNAKNTVYLQMNSLKPEDTAVYYCNALSYVWYRYPGNWDEDDYWGQGTQVTVSS”, the “polyreactivity (PSR sort gate)” value is “low polyreactivity”. With “QFQLVESGGGLVQAGGSLRLSCAASGRIFNGNAMGLYRQAPGKERELVAASTSDGSTYADSVKGRFTISRDNAKNTVYLQMNSLKPEDTAVYYCNRDGYTNSRGYEFYYWGQGTQVTVSS”, the “polyreactivity (PSR sort gate)” value was “low polyreactivity”. As for “QVQLVESRGGLVQARGSLRLSCAASGRTFYPYAMGWYSPAPGKERELVATITGSGTTTYYADSVKGRFTLSRDNGNNTVYLQMNRRKPEDTAVYYSAADVWEVVTPYGTIDDDYWRQGTQVTVSS”, the “polyreactivity (PSR sort gate)” value was “high polyreactivity”. To “QVQLVESGGRLVQAGGSLRLSCAASGYTFQRYAMGWYRQAPGKERELVAAISSSGGSTYYADSVKGRFTISRDNAKNTVYLQMNSLKPEDTAVFYCAVRFVSAWSRYDYWGQGTQVTVSS” belongs “high polyreactivity”; to “QVQLVESGGGLVQAGGSLRLSCAASGRTFALYAMAWYRQAPGKERELVASISWRGGSTYYADSVKGRFTISRDNAKNTVYLQMNSLKPEDTAVYYCAADTWSYGPLNYRLEYWGQGTQVTVSS”, “low polyreactivity”. To “QLQLQESGGLVQAGGSLRLSCAASGSISGRNVIGCYRQAPGKEREYVASITDGSSTNYADSVKGRFTISRDNAKNTVYLQMNSLKPKDTAVYYCAAYAQRAKSFGYWGRGTQVTVSS” belongs “low polyreactivity”; to “QVQLVESGGGLVQAGGSLRLTCAASGSIFYRNAMGLYRQAPGKEMELVADISWSGSSTYADSVKGLFTISRDNAKYTVYLHMNTLKPEDTAVYYCAAGGHYYSSPGYNYWGQGTQVTVSS”, “high polyreactivity”.

Regarding “QVQLVESGGGLVQAGGSLRLSCAASGNIFTLNTSGCYRQAPGKERELVARITSGDRKYYADSVKGRFTISRDNAKNTVYLQMNSLKPEDTAVYYCAARRPAYYSFWVTGYNYWGQGTQVTVSS”, the “polyreactivity (PSR sort gate)” value is recorded as “high polyreactivity”. Turning to “QVQLEESGGGLVQAGGSLRLSCAASGITIYYYAMGWYRQAPGKERELVAAISRSAGSTSYADSVKGRFTISRDNAKNTVYLQMNSLKTEDNAVYYCAAQGWHLDSQWQLYNYYYWGQGTQVTVSS”, the “polyreactivity (PSR sort gate)” value is given as “high polyreactivity”. On to “QVQLVESGGGLVQAGGSLGLSCAASGRTFGYYAMGWYRQAPGTERALVAAIRSTGSTNYADSVKGRFTISRDNAKNTVYLQMNSLIPEDTAVYYCYAKRRFRYDYWGQGTQVTVSS”, for which the “polyreactivity (PSR sort gate)” value is reported as “low polyreactivity”. Turning to “QVQLVESGGGLVQAGGSLRLSCAASARIFGWNSMGWYRQAPGKERELVAAISWRGGSTYYADSVKGRFTISRDNAKNTVYLQMNSLKPEDTAVYYCNALYTRYVSQWFGYWGEGTQVTVSS”, the “polyreactivity (PSR sort gate)” value is “high polyreactivity”. On to “QVQLVESGGGLVQAGGSLRLSCAASGSIFRYNAMGWYRQAPGKERELVAAITWSGGSTYYADSVKGRFTISRDNAKNTVYLQMNSLKPEDTAVYYCAASPYPHYRRYTGGFYYWGQGTQVTVSS”, for which the “polyreactivity (PSR sort gate)” value is “high polyreactivity”.

On to “QVQLVESGGGLVQAGGSLRLICAASGRIFNSYAMGWFRQAPGKEMELVAAISRNGGITYYADSVKGRFTISRDNAKNTVYFQMNSLKPEDTAVYYCNADSSRRRYSSDYWGQGTQVTVSS”, for which the “polyreactivity (PSR sort gate)” value was “high polyreactivity”.

For the sequence “QVQLVESGGGLVQAGGSLRLSCDASGSIFYFNAMGWYRQAPGKERELVASITSGGSTNYADSVKGRFTISRDNAKNTVYLQMNSLKPEDTAVYYCNARKVTYPLYQDEMEYWGQGTQVTVSS”, the “polyreactivity (PSR sort gate)” value was “low polyreactivity”. As for “EVQRVESGGGLVQAGCSLRLSCAASGINFSIYAMGWYRQAPGKERELVADITYSGGRTYYADSVKGRFTISRDNAKNTVYLQLYSLKPEDTAVYYCAAVGYGDYYWGQGTQVTVSS”, the “polyreactivity (PSR sort gate)” value is reported as “high polyreactivity”. For the sequence “QVQLVESGGGLVQAGGSLRLSCAASGIIIRYYAMGWYRQAPGKERELVAAISTSGGRTYYADSVKGRFTISRDNAKNPVYLQMNSLKPEDTAVYYCAARPGSWYPSVPSYNYWGQGTQVTVSW”, the “polyreactivity (PSR sort gate)” value is on record as “low polyreactivity”. For the sequence “QVQLVESGGGLVQAGGSLRLSCAASGRTFYIYAMGWYRQAPGKERELVAAITWRGGRTYYADSVKGRFTISRDNAKNTVYLQMNSLKPEDTAVYYCAARTGQGPLYNHWGQGTQVTVSS”, the “polyreactivity (PSR sort gate)” value was “high polyreactivity”. For the sequence “KVQLVESGGGLVQAGGSLRLSCAASGSIFDYYAMGWYRQAPGKEREFVAAISISGGSTNYADSVKGRFTISRDNAKNTVYLQMNSLKPEDTAVYYCAATSRWSSYGFYVQYNYWGQGSQVTVSS”, the “polyreactivity (PSR sort gate)” value is “high polyreactivity”. With “QVQLVESGGGLVQAGGSLRLSCAASGSIFYVNAMGWYRQAPGKDRELVAAISVRGGRTYYADSVKGRFTISRDNAKNTVYLQLNSLKPEDTAVYYCATRISTVGRYDYWGQGTQVTVSS”, the “polyreactivity (PSR sort gate)” value was “high polyreactivity”. On to “QVQLVESGGGLVQAGGSLRLSCAASGFTFVRYTMGWYRQAPGKERELVAAINRSGGNTYYADSVKGRFTISRDNAKKTVYLQMNSLKPEDTAVYYCAAGYYVQVSLKDYYWGQGTQVTVSS”, for which the “polyreactivity (PSR sort gate)” value is “high polyreactivity”. Turning to “QVQLVESGGGLVQAGGSLRLSCAASGRTFDGYAMGWYRQAPGKEREMVAAISRGGGNTRYADSVKGRFTISRDNAKNTVYLQMNSLKPEDTAVYYCNKLSFFPYITDEYWGQGTQVTVSS”, the “polyreactivity (PSR sort gate)” value is recorded as “high polyreactivity”. Turning to “QVQLVESGGGLVQAGGSLRLSCAASGLIFNYYAMGWYRQAPGKERELVAAISYNGGTTYYADSVKGRFTISRDNAKNTVYLQMNSLKPEDTAVYYCAAEQLVSGYDYWGQGTQVTVSS”, the “polyreactivity (PSR sort gate)” value is recorded as “low polyreactivity”. As to “QVQLVESGGGLVHAGGSLRLSCAASGFTFEYNAMGWYRQAPGKERELVAVITYRGGSTYYADSVKGRFTISRDNAKHTVYLQMNSLKPEDTAVYYCAADSVTYGGDYWGQGTQVTVSS”, the “polyreactivity (PSR sort gate)” value is “high polyreactivity”.

“QVQLVESGGGLVQAGGSLRLSCAASGLIFHGYAMGWYRQAPGKERELVAVITKNGGRTYYADSVKGRFTISRDTAKNTVYLQMNSLKPEDTAVYYCATGKNYWRGYEYWGQGTQVTVSS”: the “polyreactivity (PSR sort gate)” value is on record as “high polyreactivity”. “QVQLVESGGGLLQAGASLRLSCAASGRTIYRYAMGRYRQAPGKERELVAAITRRGVNTYYADSVKGRFTISRDNAKNTVYLQMYSLKPVDTAVFYCNAAYSSRYDYCGQGTQVTVSS”: the “polyreactivity (PSR sort gate)” value was “high polyreactivity”. For the sequence “HVQHVESGGGLVQAGGSLRLSCAASGLIFGVNAMGWYRQAPGKERELVATITSGTSTYYADSVKGRFTISRDNAKNTVYLQMNSLKPEDNAVSYCAVRNGDSWYYYWGQGTQVTVSS”, the “polyreactivity (PSR sort gate)” value is “low polyreactivity”. To “QVQLVESGGGLVQAGGSLRLSCAASGSTFTCYAMGWNRQAPRKERELVADITWRDGSTYYADSVKGRFTISRDNAKNTVYLQMNSLKPEDTAVYYCNGRRDYDMDWGQVTQVTVSS” belongs “high polyreactivity”; to “QVQLVESGGGLVQAGGSLRLSCAASGRIFQQYAMGWYRQAPGKEREVVAAISRGGSTYYADSVKGRFTISRDNAKNTVYLQMNSLKPEDTAVYYCAVRSRRGLKYDYWGQGTQVTVSS”, “high polyreactivity”. Regarding “QVQLVESGGGLVQAGGSLRLSCAASGYTFWQYAKGWYRQAPGKERELVVTITSRGGSTYYADSVKGRFTISRDNAKNTVYLHMNSLKPEDTAVYYCNARRRYSTRRSDYWGQGTQVTVSS”, the “polyreactivity (PSR sort gate)” value was “high polyreactivity”. On to “QVQLVESGGGLVQAGGSLRLSCAASGRTFFVYDMGWYRQAPGKERELVAAISRGGSTNYADSVKGRFTISRDNAKNTVYLQMNSLKPEDTAVYYCAASVQYRRLKKFYYWGQGTQVTVSS”, for which the “polyreactivity (PSR sort gate)” value is given as “high polyreactivity”.

For the sequence “QVQLVESGGGLVQAGGSLRLSCAASGRILRQYAMGWYRQEPGKERELVAAISRSGASTFYADSVKGRFTISRDNAKNTVYLPMNSLKPEYTAVYYCASKRYLKYGYWGQGTQVTVSS”, the “polyreactivity (PSR sort gate)” value is on record as “high polyreactivity”. Consider “QVQLVESGGGLVQAGGSLRLSCAASGSTFYYYGMGWYRQAPGKERELVATISGSGGSTYYADSVKGRFTITRDNAKNTVYLQMNSLTQEDTSVYYCNKDVLPSQTYSNVYWGQGTQVSVSS”, for which the “polyreactivity (PSR sort gate)” value was “low polyreactivity”. Turning to “QVQLVESGGGLGQAGGSLRLSCAASGRIFYRYVMGWYRPAPGKERELVAAITTSGGRTYYADSVKGRFTISRDNAKNTVYLQLNSLKPEDTAVYDCAAASPTPVYWSGRDYYYWGQGTQVTVSS”, the “polyreactivity (PSR sort gate)” value is reported as “high polyreactivity”. “QVQLVESGGGLVQAGGSLRLSCAASGFTFYGYVMGWSRQAPGKERDLVAAITRGGNTYYADSVKGRITISRDNAKNTVYLQMNSLKPEDTAVYYCARDRSYWDKPRQRDGYWGQGTQVTVSS”: the “polyreactivity (PSR sort gate)” value was “low polyreactivity”. Turning to “QVQLVESGGGLVQAGGSLRLSCAASGSTFGWYVMGWYRQAPGKERELVAAISQRGGRTYYADSVKGRFSISRDNAKNTVYLQMNSLKPEDTAVYYCAAPGVRVGPTFPRQGYDYWGQGTQVTVSS”, the “polyreactivity (PSR sort gate)” value is recorded as “high polyreactivity”. Turning to “QDQLVESGGWLVQAGGTLRLSCAASGRILWFYAMGWYRQAPGKERELVASISGSGGSTFYADSVKGRFTISRDNAKNTVYLQMNRLKPEDTAVYYCAAYKEPYYEEYGYWGQGTQVTVSS”, the “polyreactivity (PSR sort gate)” value is given as “low polyreactivity”. On to “QVQLVESGGGLVHAGGSLRLSCAASGSTFSRYAMGWYRQAPWKERELVAAISWSGASTYYADSVKWRFTISRDNAKNTVYLQMNSLKPEDTSVYYCAKVARQNWFRYNYDYWGQGTQVTVSS”, for which the “polyreactivity (PSR sort gate)” value was “high polyreactivity”.
